# Literature values, collected in patent publication US20220033450A1, “VIRALLY EXPRESSED INHIBITORS OF PDZ DOMAINS, SUCH AS PICK1 AND USES THEREOF” (University of Copenhagen, priority 2018, published 2022).
# Target: T1, PDZ3 of PSD-95 (Homo sapiens, UniProt P78352)
# T1 construct: specificity towards PDZ3 over PDZ 1 and 2 in PSD-95 (Toto et al. 2016)
# Conditions: Toto et al. 2016; 'supposedly'
# T1 sequence (P78352 313-393 limits assumed): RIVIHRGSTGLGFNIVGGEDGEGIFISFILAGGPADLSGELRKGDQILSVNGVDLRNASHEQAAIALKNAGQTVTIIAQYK
substance,measurement,value
YKQTSV,specificity towards PDZ3 over PDZ 1 and 2 in PSD-95,> 15 fold
